Consider eight molecules from patent US20180362645A1 (Amgen, published 2018).

“And” between values parts separate entries of the source, which are not always exact repeats. Equal values may be shown once.

Test [1] concerns the target T1, human pituitary adenylate cyclase-activating polypeptide type I receptor (human, UniProt P41586 21-468).
T1 construct: whole, on cells; On SH-SY5Y or recombinant CHO cells (cAMP assay), as membranes of hPAC-1 AequoScreen CHO cells (radioligand assay) and on CHOK1/huPac1 whole cells (KinExA); also called human PAC1; hPAC1
T1 sequence (looked up): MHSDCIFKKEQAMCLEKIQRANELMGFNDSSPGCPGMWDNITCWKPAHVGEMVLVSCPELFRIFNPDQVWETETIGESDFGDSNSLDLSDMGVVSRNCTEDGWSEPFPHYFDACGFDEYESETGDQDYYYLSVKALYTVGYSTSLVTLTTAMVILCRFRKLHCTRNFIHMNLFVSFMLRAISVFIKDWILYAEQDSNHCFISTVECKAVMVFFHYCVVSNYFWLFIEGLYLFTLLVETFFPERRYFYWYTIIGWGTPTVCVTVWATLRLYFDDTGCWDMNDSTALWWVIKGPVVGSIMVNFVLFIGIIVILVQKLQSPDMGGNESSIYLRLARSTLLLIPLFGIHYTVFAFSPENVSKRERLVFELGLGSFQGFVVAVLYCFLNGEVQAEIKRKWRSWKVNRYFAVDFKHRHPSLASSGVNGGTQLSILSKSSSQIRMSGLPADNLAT
Kind of test: KinExA, CHOK1/huPac1 whole cells. (In KinExA the mixture passes briefly over coated beads that capture the unbound partner.)
Experimental: Binding of anti-Pac1 antibody with CHOK1/huPac1 cells were tested on KinExA. […] Samples containing anti-Pac1 antibody and whole cells were incubated with rotation at room temperature for 4 hours before 5-minute 220-g centrifugation at 4° C. to separate the whole cells and anti-Pac1 antibody-cell complexes from unbound anti-Pac1 antibody. The supernatants containing free anti-Pac1 antibody were filtered through 0.22 μm filter before loading to the goat-anti-huFc-coated beads on KinExA. […] The binding signal is proportional to the concentration of free anti-Pac1 antibody in solution at each cell density. Equilibrium dissociation constant (KD) was estimated by n-curve analysis in KinExA™ Pro software (Sapidyne Instruments, Inc., Boise, Id.).

Test [2] concerns the target T1, human pituitary adenylate …. Kind of test: radioligand competition, hPAC1 CHO membranes; competitor 125I-26B.
Experimental: (§1) The plates were incubated at room temperature for 2 hours with shaking at 60 rpm, and then the contents of each well were filtered over 0.5% polyethyleneimine (PEI)-treated (for at least two hours) GF/C 96-well filter plates. The GF/C filter plates were washed five times with ice-cold 50 mM Tris, pH 7.5 and dried in an oven at 55° C. for 1 hour. The bottoms of the GF/C plates were then sealed. 40 μl Microscint™ 20 was added to each well, the tops of the GF/C plates were sealed with TopSeal™-A (a press-on adhesive sealing film), and the GF/C plates were counted with TopCount NXT (Packard). The data were analyzed using Prizm (GraphPad Software Inc.)
The target is the same in test [3]. In words: radioligand competition, hPAC1 CHO membranes; competitor 125I-39B.
Experimental: as §1
Test [4] shares this target. Kind of test: radioligand competition, hPAC1 CHO membranes; competitor 125I-01B. (In general: Displacement assays read how much labelled ligand stays bound in the presence of the test substance.)
Experimental: as §1
The target is the same in test [5]. Kind of test: radioligand competition, hPAC1 CHO membranes; competitor 125I-39A.
Experimental: as §1
Test [6] shares this target. In words: radioligand competition, hPAC1 CHO membranes; competitor 125I-26A.
Experimental: as §1
For test [7] the target is unchanged. In words: radioligand competition, hPAC1 CHO membranes; competitor 125I-14B.
Experimental: as §1
Test [8] shares this target. Kind of test: radioligand competition, hPAC1 CHO membranes; competitor 125I-29B.
Experimental: as §1
Test [9] shares this target. In words: radioligand competition, hPAC1 CHO membranes; competitor 125I-14A.
Experimental: as §1
In a further test the target is T2, human VPAC1 (human, UniProt P32241 31-457).
T2 sequence (looked up): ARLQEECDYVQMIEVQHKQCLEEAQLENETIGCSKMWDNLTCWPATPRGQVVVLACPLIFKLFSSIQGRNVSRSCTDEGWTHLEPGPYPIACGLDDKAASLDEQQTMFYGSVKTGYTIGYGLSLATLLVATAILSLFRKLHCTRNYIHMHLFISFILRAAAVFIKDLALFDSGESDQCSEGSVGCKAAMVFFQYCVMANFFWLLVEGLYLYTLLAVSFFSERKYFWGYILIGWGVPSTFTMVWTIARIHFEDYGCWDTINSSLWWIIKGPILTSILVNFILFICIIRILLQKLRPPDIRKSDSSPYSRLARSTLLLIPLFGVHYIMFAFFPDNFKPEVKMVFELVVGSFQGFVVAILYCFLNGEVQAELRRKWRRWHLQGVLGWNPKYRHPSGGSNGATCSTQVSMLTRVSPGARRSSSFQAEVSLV
Kind of test: cell-based or functional assay.

The next test addresses T3, human VPAC2 (human, UniProt P41587 24-438).
T3 sequence (looked up): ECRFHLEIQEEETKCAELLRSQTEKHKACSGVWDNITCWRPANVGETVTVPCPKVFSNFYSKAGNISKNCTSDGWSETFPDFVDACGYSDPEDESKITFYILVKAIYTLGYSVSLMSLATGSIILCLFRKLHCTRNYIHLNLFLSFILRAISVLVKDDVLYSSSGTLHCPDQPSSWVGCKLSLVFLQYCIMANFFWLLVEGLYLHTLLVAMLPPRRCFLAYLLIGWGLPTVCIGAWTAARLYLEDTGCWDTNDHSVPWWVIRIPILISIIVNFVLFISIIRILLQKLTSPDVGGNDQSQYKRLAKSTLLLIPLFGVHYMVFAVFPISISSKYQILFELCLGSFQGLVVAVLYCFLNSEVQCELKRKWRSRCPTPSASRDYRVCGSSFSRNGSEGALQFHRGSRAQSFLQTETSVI
Kind of test: cell-based or functional assay.

In the next test the target is cyno PAC1 (cynomolgus). Kind of test: cell-based or functional assay.
Test [10] deals with T1, human pituitary adenylate …. Kind of test: radioligand competition, hPAC1 CHO membranes; competitor 125I-29A.
Experimental: as §1
The target is the same in test [11]. In words: radioligand competition, hPAC1 CHO membranes; competitor 125I-28A.
Experimental: as §1

B1: 39A (antibody, human IgG2, kappa)
heavy: QVQLQESGPGLVKPSQTLSLTCTVSGGSISSGGYYWSWIRQHPGKGLEWIGYIYYSGNTYYNPSLKSRVTISGDTSKNQFSLKLRSVTAADTAVYYCTRGGAARGMDVWGQGTTVTVSSASTKGPSVFPLAPCSRSTSESTAALGCLVKDYFPEPVTVSWNSGALTSGVHTFPAVLQSSGLYSLSSVVTVPSSNFGTQTYTCNVDHKPSNTKVDKTVERKCCVECPPCPAPPVAGPSVFLFPPKPKDTLMISRTPEVTCVVVDVSHEDPEVQFNWYVDGVEVHNAKTKPREEQFNSTFRVVSVLTVVHQDWLNGKEYKCKVSNKGLPAPIEKTISKTKGQPREPQVYTLPPSREEMTKNQVSLTCLVKGFYPSDIAVEWESNGQPENNYKTTPPMLDSDGSFFLYSKLTVDKSRWQQGNVFSCSVMHEALHNHYTQKSLSLSPGK
light: not shown
notes: also called 39A lot1; 39A lot2
B1 registered a Kd in test [1] of 0.036 nM. Besides, the Ki in [2] is 0.17 nM and 0.14 nM; in test [3] it was 0.2 nM and 0.18 nM; in test [4] it was 0.3 nM and 0.15 nM; in test [5], 0.16 nM; in [6], 0.13 nM; in test [7] it was 0.24 nM and 0.43 nM. In addition, the Ki was 0.08 nM and 0.14 nM in test [8]; 0.2 nM in test [9].

B2: 38A (antibody, human IgG2, kappa, V domains shown)
VH: QVQLQESGPGLVKPSQTLSLTCTVSGGSISRGGYYWSWIRQHPGKGLEWIGYIYYSGNTYYNPSLKSRVIISGDTSKNQLSLKLRSVTAADTAVYYCARGGAARGMDVWGQGTTVTVSS
VL: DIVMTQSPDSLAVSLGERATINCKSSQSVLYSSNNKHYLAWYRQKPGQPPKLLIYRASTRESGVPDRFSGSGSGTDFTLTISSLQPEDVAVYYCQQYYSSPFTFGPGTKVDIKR
notes: also called LC-18 and HC-50
Take B2: the Kd in [1] came out at 0.016 nM. In addition, the results for the Ki in test [5], in test [6] and in test [9] were 0.11 nM, 0.07 nM and 0.07 nM, respectively.

B3: 26B (antibody, human IgG1, kappa, N297G)
heavy: not shown
light: DIQLTQSPSFLSASVGDRVTITCRASQSIGRSLHWYQQKPGKAPKLLIKYASQSLSGVPSRFSGSGSGTEFTLTISSLQPEDFATYYCHQSSRLPFTFGPGTKVDIKRTVAAPSVFIFPPSDEQLKSGTASVVCLLNNFYPREAKVQWKVDNALQSGNSQESVTEQDSKDSTYSLSSTLTLSKADYEKHKVYACEVTHQGLSSPVTKSFNRGEC
With B3, in the test with human VPAC1, the “hVPAC1 IC50 (cAMP assay)” value is greater than 10000 nM. Also, in the test with human VPAC2, the “hVPAC2 IC50 (cAMP assay)” value was greater than 10000 nM. For the same molecule, in the test with cyno PAC1, the “cyno PAC1 IC50 (cAMP assay)” value was determined as 1.3 nM.

B4: 03A (antibody, human IgG2, kappa, V domains shown)
VH: QVQLVESGGGVVQPGRSLRLSCAASGFTFSYYAIHWVRQAPGKGLEWVAVISYDGSNKYYADSVKGRFTISRDNSKNTLYLQMNSLRAEDTAVYYCARGYDLLTGYPDYWGQGTLVTVSS
VL: DIQLTQSPSFLSASVGDRVTITCRASQSIGRSLHWYQQKPGKAPKLLIKYASQSLSGVPSRFSGSGSGTEFTLTISSLQPEDFATYYCHQSSRLPFTFGPGTKVDIKR
notes: also called LC-03 and HC-03
In [1], B4 returned a Kd of 0.126 nM. Besides, the Ki in [10] came out at 0.14 nM; in test [11], 0.01 nM.

B5: 28A (antibody, human IgG2, kappa, V domains shown)
VH: QVQLVESGGGVVQPGRSLRLSCAASGFTFSRYAMHWVRQASGKGLEWVAVISYDGSNKYYADSVKGRFTISRDNSKNTLYLLMSSLRAEDTAVFYCARGYDILTGYPDYWGQGTLVTVSS
VL: EIVLTQSPDFQSVTPKEKVTITCRASQSIGRSLHWYQQKPDQSPKLLFKYASQSLSGVPSRFSGSGSGTDFTLTINSLEAEDAATYYCHQSSRLPFTFGPGTKVDIKR
notes: also called LC-10 and HC-39
For the molecule B5, the Ki in test [10] is 0.04 nM; in test [11], less than 0.01 nM.

B6: 29A (antibody, human IgG2, kappa)
heavy: QVQLVESGGGVVQPGRSLRLSCAASGFTFSRYAMHWVRQASGKGLEWVAVISYDGSNKYYADSVKGRFTISRDNSKNTLYLLMSSLRAEDTAVFYCARGYDILTGYPDYWGQGTLVTVSSASTKGPSVFPLAPCSRSTSESTAALGCLVKDYFPEPVTVSWNSGALTSGVHTFPAVLQSSGLYSLSSVVTVPSSNFGTQTYTCNVDHKPSNTKVDKTVERKCCVECPPCPAPPVAGPSVFLFPPKPKDTLMISRTPEVTCVVVDVSHEDPEVQFNWYVDGVEVHNAKTKPREEQFNSTFRVVSVLTVVHQDWLNGKEYKCKVSNKGLPAPIEKTISKTKGQPREPQVYTLPPSREEMTKNQVSLTCLVKGFYPSDIAVEWESNGQPENNYKTTPPMLDSDGSFFLYSKLTVDKSRWQQGNVFSCSVMHEALHNHYTQKSLSLSPGK
light: DIQLTQSPSFLSASVGDRVTITCRASQSIGRSLHWYQQKPGKAPKLLFKYASQSLSGVPSRFSGSGSGTEFTLTISSLQPEDFATYYCHQSSRLPFTFGPGTKVDIKRTVAAPSVFIFPPSDEQLKSGTASVVCLLNNFYPREAKVQWKVDNALQSGNSQESVTEQDSKDSTYSLSSTLTLSKADYEKHKVYACEVTHQGLSSPVTKSFNRGEC
notes: also called LC-11 and HC-39
B6: binding in [1] was put at a Kd of 0.013 nM. The Ki in [2] was 0.11 nM; in test [3], 0.08 nM; in [4], 0.13 nM; in test [10] it was 0.04 nM; in test [5], 0.06 nM; in [6], 0.03 nM. In addition, the Ki in test [7] amounted to 0.1 nM; in [8], 0.09 nM; in test [9], 0.07 nM.

B7: 05A (antibody, human IgG2, kappa, V domains shown)
VH: QVQLVESGGGVVQPGRSLRLSCAASGFTFSRFAMHWVRRAPGKGLEWVAVISYDGGNKYYAESVKGRFTISRDNSKNTLNLLMNSLRAEDTALFYCARGYDVLTGYPDYWGQGTLVTVSS
VL: DIQLTQSPSFLSASVGDRVTITCRASQSIGRSLHWYQQKPGKAPKLLIKYASQSLSGVPSRFSGSGSGTEFTLTISSLQPEDFATYYCHQSSRLPFTFGPGTKVDIKR
notes: also called LC-05 and HC-06
Take B7: the Ki stood at 0.03 nM in [10] and 0.02 nM in test [11].

B8: 14B (antibody, human IgG1, kappa, N297G)
heavy: not shown
light: EIVLTQSPATLSLSPGERATLSCRASQSVGRSLHWYQQKPGQAPRLLIKYASQSLSGIPARFSGSGSGTDFTLTISSLEPEDFAVYYCHQSSRLPFTFGPGTKVDIKRTVAAPSVFIFPPSDEQLKSGTASVVCLLNNFYPREAKVQWKVDNALQSGNSQESVTEQDSKDSTYSLSSTLTLSKADYEKHKVYACEVTHQGLSSPVTKSFNRGEC
With B8, in the test with human VPAC1, the “hVPAC1 IC50 (cAMP assay)” value was greater than 10000 nM. Further, in the test with human VPAC2, the “hVPAC2 IC50 (cAMP assay)” value was greater than 10000 nM. For the same molecule, in the test with cyno PAC1, the “cyno PAC1 IC50 (cAMP assay)” value was 0.6 nM.

One may read the Kd as a measure of binding affinity in units of concentration. A lower Kd goes with higher affinity. As usually defined, the Ki is the equilibrium dissociation constant of an inhibitor or competing ligand from its target. High values mean a looser hold on the target, low ones a stronger hold on the target.
